± gives the standard deviation of the averaged measurements.
Tested on: Saccharomyces cerevisiae
Assay: protein stability index of tFT-peptide fusion (C-terminal peptide) (PSI (0-1 scale)); higher = more stable (slower turnover)
Details: temperature: 30 C
Method: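 MPS profiling in S. cerevisiae of the yeast C-terminome library: the last 12 aa of each annotated ORF are fused to the C-terminus of a sfGFP-mCherry timer, after a GGGS linker. Cells are FACS-sorted into 8 mCherry/sfGFP bins and deep-sequenced. PSI runs from 0 (unstable) to 1 (stable); wild type and das1Δ backgrounds, two technical replicates each.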

[1] = genetic background: das1 deletion

Sequence | protein stability index [1] | protein stability index (genetic background: wild type)
ELDEIAASLENL [TPM1 C-terminal 12 aa] | 0.7088 ± 0.0027 | 0.69 ± 0.01
EEKKKKKIAESK [TIM50 C-terminal 12 aa] | 0.681 ± 0.06 | 0.64 ± 0.044
EMVKKHALNGRI [NRS1 C-terminal 12 aa] | 0.7115 ± 0.004 | 0.671 ± 0.025
WQLVDNYESGYE [YGL194C-A C-terminal 12 aa] | 0.7087 ± 0.0048 | 0.648 ± 0.031
SALILMYKGFGL [UBP6 C-terminal 12 aa] | 0.664 ± 0.022 | 0.683 ± 0.015
LADAGHLWHSIT [YNL120C C-terminal 12 aa] | 0.746 ± 0.02 | 0.6128 ± 0.00091
SLPLVSLFIVLA [YJL064W C-terminal 12 aa] | 0.267 ± 0.019 | 0.268 ± 0.0062
TDTEAEDDESPE [SEC63 C-terminal 12 aa] | 0.692 ± 0.025 | 0.633 ± 0.013
ATLINILLELFS [ECM27 C-terminal 12 aa] | 0.632 ± 0.014 | 0.63 ± 0.018
FSALMGESDDEE [TIF4631 C-terminal 12 aa] | 0.659 ± 0.019 | 0.678 ± 0.047
FVYKGVRKPKRN [SEN15 C-terminal 12 aa] | 0.752 ± 0.033 | 0.778 ± 0.1
CKDQTVTQILAT [DMO1 C-terminal 12 aa] | 0.6533 ± 0.0054 | 0.682 ± 0.029
SISVLFDSLAAL [PRS1 C-terminal 12 aa] | 0.714 ± 0.0093 | 0.736 ± 0.022
SKMLKNKIPLKN [YGL138C C-terminal 12 aa] | 0.667 ± 0.0083 | 0.685 ± 0.039
EKEFTGNSQSEK [NMA111 C-terminal 12 aa] | 0.6859 ± 0.006 | 0.742 ± 0.039
LPNTISSETFLK [SCEI C-terminal 12 aa] | 0.661 ± 0.0076 | 0.702 ± 0.018
LFFQDIERFFSC [YMR194C-A C-terminal 12 aa] | 0.7717 ± 0.0042 | 0.7619 ± 0.0028
ILELPHVVSDLF [SDT1 C-terminal 12 aa] | 0.713 ± 0.0089 | 0.7147 ± 0.0022
EDAEKRADEMDD [SRM1 C-terminal 12 aa] | 0.691 ± 0.034 | 0.675 ± 0.033
KVTSANEHTSAV [PEX27 C-terminal 12 aa] | 0.689 ± 0.011 | 0.697 ± 0.013
TRKWANAAKGMP [YLR407W C-terminal 12 aa] | 0.6889 ± 0.0067 | 0.727 ± 0.012

Sequence | protein stability index [1] | protein stability index (genetic background: wild type)
RMSNGLYTISMS [YPR050C C-terminal 12 aa] | 0.694 ± 0.017 | 0.6869 ± 0.0011
EELKKLSNPDMN [CUP9 C-terminal 12 aa] | 0.713 ± 0.059 | 0.686 ± 0.0076
ISSGPPPRSPNK [IGO2 C-terminal 12 aa] | 0.68 ± 0.01 | 0.6422 ± 0.0036
ALNRADKMSTIG [URH1 C-terminal 12 aa] | 0.676 ± 0.027 | 0.6665 ± 0.0042
QKIDNALKMTGR [YDR102C C-terminal 12 aa] | 0.6896 ± 0.0062 | 0.705 ± 0.0095
PLSASWCTSLVT [YHR173C C-terminal 12 aa] | 0.696 ± 0.0087 | 0.671 ± 0.0088
DILLSCIADLTI [POL2 C-terminal 12 aa] | 0.71 ± 0.04 | 0.707 ± 0.054
FQRRSISGLGDL [INP1 C-terminal 12 aa] | 0.711 ± 0.0092 | 0.676 ± 0.031
FMSNTLFNSSLV [YPR003C C-terminal 12 aa] | 0.668 ± 0.012 | 0.693 ± 0.037
GLLLPLCHRKRS [YOR012W C-terminal 12 aa] | 0.706 ± 0.015 | 0.411 ± 0.039
NVGKQLSNEIIY [PRP28 C-terminal 12 aa] | 0.695 ± 0.045 | 0.686 ± 0.042
TPLLLGNKGKPQ [YBL094C C-terminal 12 aa] | 0.687 ± 0.019 | 0.696 ± 0.043
TDYTRIIKMQSS [SWD1 C-terminal 12 aa] | 0.701 ± 0.013 | 0.251 ± 0.0049
WHKHKTSSDKNI [YDR261C-D C-terminal 12 aa] | 0.733 ± 0.02 | 0.749 ± 0.012
KSQISVSFYRDN [YPR027C C-terminal 12 aa] | 0.704 ± 0.04 | 0.6736 ± 0.0023
PKSNMYYSWTQL [ORC4 C-terminal 12 aa] | 0.7112 ± 0.0057 | 0.68625 ± 0.00028
EGGDLEYQHVKI [YCR043C C-terminal 12 aa] | 0.691 ± 0.0077 | 0.682 ± 0.03
TKCEEEIKNLSK [YME2 C-terminal 12 aa] | 0.698 ± 0.022 | 0.711 ± 0.036
IDDKSDQEESLQ [MAF1 C-terminal 12 aa] | 0.706 ± 0.0079 | 0.664 ± 0.067
REETEKLNINKD [YAR1 C-terminal 12 aa] | 0.71 ± 0.014 | 0.66 ± 0.067
TSPRNICTSLCV [SAL1 C-terminal 12 aa] | 0.66358 ± 0.00023 | 0.655 ± 0.038

Sequence | protein stability index [1] | protein stability index (genetic background: wild type)
REVREIHEMYCK [YKR012C C-terminal 12 aa] | 0.696 ± 0.034 | 0.6885 ± 0.0035
MVTNDGFGSTVL [YLR379W-A C-terminal 12 aa] | 0.698 ± 0.013 | 0.734 ± 0.029
FFVFLFWWIFLK [SEC22 C-terminal 12 aa] | 0.155 ± 0.019 | 0.131 ± 0.015
KNLQNELEKNNA [RTN1 C-terminal 12 aa] | 0.6887 ± 0.0022 | 0.6647 ± 0.0021
VPKSLYGVTRTR [GAT3 C-terminal 12 aa] | 0.697 ± 0.008 | 0.686 ± 0.032
KTQDYGKKYNSG [SIZ1 C-terminal 12 aa] | 0.69 ± 0.018 | 0.727 ± 0.0097
VFPDVLFTFLFS [YEL010W C-terminal 12 aa] | 0.70228 ± 0.00029 | 0.713 ± 0.027
TFKGLYAEANSI [YOR111W C-terminal 12 aa] | 0.739 ± 0.01 | 0.716 ± 0.031
NNDDSANDLIDR [CCH1 C-terminal 12 aa] | 0.649 ± 0.013 | 0.681 ± 0.02
WTLLSRFLDREW [ATG36 C-terminal 12 aa] | 0.684 ± 0.015 | 0.6939 ± 0.0011
LAVEETIGFGQE [RSP5 C-terminal 12 aa] | 0.7037 ± 0.0066 | 0.692 ± 0.011
AEHHLQTFLSEK [ISC1 C-terminal 12 aa] | 0.6488 ± 0.0013 | 0.641 ± 0.02
IHFGETSNYSFD [SMC5 C-terminal 12 aa] | 0.722 ± 0.02 | 0.698 ± 0.017
LKRVVTKAMSSR [SSB1 C-terminal 12 aa] | 0.714 ± 0.012 | 0.6864 ± 0.0039
MKSKKIDIKGQK [THP3 C-terminal 12 aa] | 0.705 ± 0.03 | 0.665 ± 0.018
QQYFQEPQQGQY [MCM1 C-terminal 12 aa] | 0.676 ± 0.0068 | 0.703 ± 0.077
SNDDFRKMFLGE [PRP24 C-terminal 12 aa] | 0.725 ± 0.011 | 0.708 ± 0.01
VNNFKMFSNSSV [YIL115W-A C-terminal 12 aa] | 0.704 ± 0.027 | 0.765 ± 0.045
WEHAMRSRRHKR [SWC3 C-terminal 12 aa] | 0.726 ± 0.0012 | 0.673 ± 0.027
DACIKRWNVVLE [AIP1 C-terminal 12 aa] | 0.684 ± 0.023 | 0.71 ± 0.049
PFGNGFKMNFGL [JEM1 C-terminal 12 aa] | 0.736 ± 0.038 | 0.677 ± 0.058

Sequence | protein stability index [1] | protein stability index (genetic background: wild type)
SLFPRDPKRLRP [DPS1 C-terminal 12 aa] | 0.7133 ± 0.0054 | 0.6987 ± 0.0031
ECDGITVPEKLT [MSC6 C-terminal 12 aa] | 0.682 ± 0.012 | 0.708 ± 0.011
LSFFGILKYCFL [TSC3 C-terminal 12 aa] | 0.6491 ± 0.0031 | 0.618 ± 0.027
RGDDGESYAYLA [CDC53 C-terminal 12 aa] | 0.69274 ± 0.00042 | 0.691 ± 0.0089
FENGGKLKEVDK [MDM35 C-terminal 12 aa] | 0.686 ± 0.01 | 0.7211 ± 0.0027
EKKKNPYWYYQW [GEP3 C-terminal 12 aa] | 0.735 ± 0.009 | 0.673 ± 0.025
NENLSNELQPSL [AME1 C-terminal 12 aa] | 0.678 ± 0.009 | 0.759 ± 0.072
PKINPLHARKPT [RAD52 C-terminal 12 aa] | 0.7086 ± 0.0022 | 0.7036 ± 0.0028
IDLIAFLRNGPL [GPR1 C-terminal 12 aa] | 0.737 ± 0.039 | 0.749 ± 0.088
TDIEPSAKRQKK [RPF2 C-terminal 12 aa] | 0.776 ± 0.048 | 0.695 ± 0.087
FSTWDIADKQEA [PMT2 C-terminal 12 aa] | 0.717 ± 0.016 | 0.732 ± 0.023
LTALLETVNKYR [GCG1 C-terminal 12 aa] | 0.7 ± 0.016 | 0.682 ± 0.014
ECRARKASSNRS [YGR109W-A C-terminal 12 aa] | 0.681 ± 0.0073 | 0.707 ± 0.024
IYYKSQNWRREC [YBR219C C-terminal 12 aa] | 0.707 ± 0.045 | 0.169 ± 0.0069
KQYSSPEICFRV [YBR134W C-terminal 12 aa] | 0.692 ± 0.029 | 0.663 ± 0.014
VQNLIAAVMGEL [PNP1 C-terminal 12 aa] | 0.7186 ± 0.002 | 0.664 ± 0.024
KAGREELERVNV [QCR8 C-terminal 12 aa] | 0.688 ± 0.026 | 0.685 ± 0.015
TTDEEVKEKKKR [GLE2 C-terminal 12 aa] | 0.6893 ± 0.0049 | 0.692 ± 0.028
LDSVFSKFCIGK [MSS1 C-terminal 12 aa] | 0.7 ± 0.0095 | 0.703 ± 0.082
